# Data as given in the supplement of paper PMC10567573.
# B1: NETO1 (parent)
# chain: KTSLLDQLTNTSGTVIGVTSCIVI
# Variants of: B1
# Experiment: protein stability index of a GFP-peptide fusion (GPS, HEK-293T) (PSI 1-6); higher = more stable
# Settings: c terminus: a fixed tail appended
# 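Also: lentivirally expressed fusions sorted by FACS into six bins by GFP to DsRed ratio, PSI derived from sequencing read proportions per bin multiplied by bin number.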
row,Variant,protein stability index
1,KNSLLDQLTNTSGTVIGVTSCIVI [T2N],2.4
2,KWSLLDQLTNTSGTVIGVTSCIVI [T2W],2.31
3,KRSLLDQLTNTSGTVIGVTSCIVI [T2R],3.11
4,KYSLLDQLTNTSGTVIGVTSCIVI [T2Y],3.38
5,KQSLLDQLTNTSGTVIGVTSCIVI [T2Q],2.94
6,KMSLLDQLTNTSGTVIGVTSCIVI [T2M],2.76
7,KSSLLDQLTNTSGTVIGVTSCIVI [T2S],2.57
8,KPSLLDQLTNTSGTVIGVTSCIVI [T2P],3.5
9,KVSLLDQLTNTSGTVIGVTSCIVI [T2V],2.68
10,KKSLLDQLTNTSGTVIGVTSCIVI [T2K],2.64
11,KLSLLDQLTNTSGTVIGVTSCIVI [T2L],2.58
12,KTNLLDQLTNTSGTVIGVTSCIVI [S3N],2.57
13,KTRLLDQLTNTSGTVIGVTSCIVI [S3R],3.26
14,KTDLLDQLTNTSGTVIGVTSCIVI [S3D],2.46
15,KTWLLDQLTNTSGTVIGVTSCIVI [S3W],2.56
16,KTQLLDQLTNTSGTVIGVTSCIVI [S3Q],3.04
17,KTFLLDQLTNTSGTVIGVTSCIVI [S3F],2.59
18,KTTLLDQLTNTSGTVIGVTSCIVI [S3T],2.61
19,KTPLLDQLTNTSGTVIGVTSCIVI [S3P],2.58
20,KTILLDQLTNTSGTVIGVTSCIVI [S3I],3.45
21,KTGLLDQLTNTSGTVIGVTSCIVI [S3G],1.92
22,KTELLDQLTNTSGTVIGVTSCIVI [S3E],2.86
23,KTLLLDQLTNTSGTVIGVTSCIVI [S3L],2.17
24,KTALLDQLTNTSGTVIGVTSCIVI [S3A],3.59

row,Variant,protein stability index
1,KTKLLDQLTNTSGTVIGVTSCIVI [S3K],2.88
2,KTHLLDQLTNTSGTVIGVTSCIVI [S3H],2.43
3,KTCLLDQLTNTSGTVIGVTSCIVI [S3C],3.27
4,KTVLLDQLTNTSGTVIGVTSCIVI [S3V],2.39
5,KTYLLDQLTNTSGTVIGVTSCIVI [S3Y],3.56
6,KTMLLDQLTNTSGTVIGVTSCIVI [S3M],3.37
7,KTSQLDQLTNTSGTVIGVTSCIVI [L4Q],3.64
8,KTSYLDQLTNTSGTVIGVTSCIVI [L4Y],2.83
9,KTSFLDQLTNTSGTVIGVTSCIVI [L4F],2.99
10,KTSNLDQLTNTSGTVIGVTSCIVI [L4N],2.6
11,KTSGLDQLTNTSGTVIGVTSCIVI [L4G],4.07
12,KTSELDQLTNTSGTVIGVTSCIVI [L4E],2.94
13,KTSHLDQLTNTSGTVIGVTSCIVI [L4H],3.14
14,KTSRLDQLTNTSGTVIGVTSCIVI [L4R],2.34
15,KTSMLDQLTNTSGTVIGVTSCIVI [L4M],2.19
16,KTSSLDQLTNTSGTVIGVTSCIVI [L4S],1.85
17,KTSTLDQLTNTSGTVIGVTSCIVI [L4T],3.56
18,KTSVLDQLTNTSGTVIGVTSCIVI [L4V],3.28
19,KTSALDQLTNTSGTVIGVTSCIVI [L4A],2.65
20,KTSILDQLTNTSGTVIGVTSCIVI [L4I],4.14
21,KTSPLDQLTNTSGTVIGVTSCIVI [L4P],2.67
22,KTSDLDQLTNTSGTVIGVTSCIVI [L4D],2.7
23,KTSWLDQLTNTSGTVIGVTSCIVI [L4W],3.2
24,KTSKLDQLTNTSGTVIGVTSCIVI [L4K],2.57

row,Variant,protein stability index
1,KTSCLDQLTNTSGTVIGVTSCIVI [L4C],2.08
2,KTSLLVQLTNTSGTVIGVTSCIVI [D6V],2.61
3,KTSLLQQLTNTSGTVIGVTSCIVI [D6Q],2.18
4,KTSLLWQLTNTSGTVIGVTSCIVI [D6W],3.03
5,KTSLLKQLTNTSGTVIGVTSCIVI [D6K],1.98
6,KTSLLPQLTNTSGTVIGVTSCIVI [D6P],1.82
7,KTSLLCQLTNTSGTVIGVTSCIVI [D6C],4.27
8,KTSLLNQLTNTSGTVIGVTSCIVI [D6N],2.37
9,KTSLLAQLTNTSGTVIGVTSCIVI [D6A],3.62
10,KTSLLYQLTNTSGTVIGVTSCIVI [D6Y],3.38
11,KTSLLEQLTNTSGTVIGVTSCIVI [D6E],3.74
12,KTSLLFQLTNTSGTVIGVTSCIVI [D6F],2.58
13,KTSLLRQLTNTSGTVIGVTSCIVI [D6R],3.02
14,KTSLLIQLTNTSGTVIGVTSCIVI [D6I],3.8
15,KTSLLGQLTNTSGTVIGVTSCIVI [D6G],2.31
16,KTSLLHQLTNTSGTVIGVTSCIVI [D6H],3.23
17,KTSLLTQLTNTSGTVIGVTSCIVI [D6T],3.2
18,KTSLLSQLTNTSGTVIGVTSCIVI [D6S],2.52
19,KTSLLMQLTNTSGTVIGVTSCIVI [D6M],2.53
20,KTSLLLQLTNTSGTVIGVTSCIVI [D6L],2.92
21,KTSLLDHLTNTSGTVIGVTSCIVI [Q7H],4.35
22,KTSLLDILTNTSGTVIGVTSCIVI [Q7I],2.08
23,KTSLLDFLTNTSGTVIGVTSCIVI [Q7F],2.62
24,KTSLLDELTNTSGTVIGVTSCIVI [Q7E],2.27

row,Variant,protein stability index
1,KTSLLDDLTNTSGTVIGVTSCIVI [Q7D],3.75
2,KTSLLDCLTNTSGTVIGVTSCIVI [Q7C],2.94
3,KTSLLDGLTNTSGTVIGVTSCIVI [Q7G],3.62
4,KTSLLDALTNTSGTVIGVTSCIVI [Q7A],2.92
5,KTSLQDQLTNTSGTVIGVTSCIVI [L5Q],3.37
6,KTSLSDQLTNTSGTVIGVTSCIVI [L5S],3.07
7,KTSLVDQLTNTSGTVIGVTSCIVI [L5V],2.59
8,KTSLKDQLTNTSGTVIGVTSCIVI [L5K],2.78
9,KTSLCDQLTNTSGTVIGVTSCIVI [L5C],2.32
10,KTSLWDQLTNTSGTVIGVTSCIVI [L5W],3.45
11,KTSLNDQLTNTSGTVIGVTSCIVI [L5N],3.16
12,KTSLADQLTNTSGTVIGVTSCIVI [L5A],3.63
13,KTSLHDQLTNTSGTVIGVTSCIVI [L5H],2.21
14,KTSLMDQLTNTSGTVIGVTSCIVI [L5M],3.86
15,KTSLIDQLTNTSGTVIGVTSCIVI [L5I],2.8
16,KTSLEDQLTNTSGTVIGVTSCIVI [L5E],2.98
17,KTSLGDQLTNTSGTVIGVTSCIVI [L5G],2.97
18,KTSLFDQLTNTSGTVIGVTSCIVI [L5F],2.32
19,KTSLPDQLTNTSGTVIGVTSCIVI [L5P],2.45
20,KTSLRDQLTNTSGTVIGVTSCIVI [L5R],3.13
21,KTSLDDQLTNTSGTVIGVTSCIVI [L5D],2.98
22,KTSLYDQLTNTSGTVIGVTSCIVI [L5Y],2.3
